PMC6172466

Molecular target: FlAsH-tagged K63-linked diubiquitin (UniProt P0CG48)
Test: fluorescence polarisation; FlAsH-tagged K63-linked diUb (diluted to 80 nM, mixed 1:1) with serially diluted OTUD1; 50 mM Tris, 50 mM NaCl, 0.1% β-mercaptoethanol, pH 7.6; room temperature, 1 h

B1: OTUD1 catalytic domain (residues 287-435) C320A (domain or fragment)
chain: DEKLALYLAEVEKQDKYLRQRNKYRFHIIPDGNALYRAVSKTVYGDQSLHRELREQTVHYIADHLDHFSPLIEGDVGEFIIAAAQDGAWAGYPELLAMGQMLNVNIHLTTGGRLESPTVSTMIHYLGPEDSLRPSIWLSWLSNGHYDAV
Kd: 40 µM
